Ends that are not written are not given here.
Target: kinase domain of BRAF^WT (human, UniProt P15056 457-717)
Assay: other fluorescence titration

kinase domain of BRAF^WT, sequence (P15056 whole entry, looked up, the tested form may be a part): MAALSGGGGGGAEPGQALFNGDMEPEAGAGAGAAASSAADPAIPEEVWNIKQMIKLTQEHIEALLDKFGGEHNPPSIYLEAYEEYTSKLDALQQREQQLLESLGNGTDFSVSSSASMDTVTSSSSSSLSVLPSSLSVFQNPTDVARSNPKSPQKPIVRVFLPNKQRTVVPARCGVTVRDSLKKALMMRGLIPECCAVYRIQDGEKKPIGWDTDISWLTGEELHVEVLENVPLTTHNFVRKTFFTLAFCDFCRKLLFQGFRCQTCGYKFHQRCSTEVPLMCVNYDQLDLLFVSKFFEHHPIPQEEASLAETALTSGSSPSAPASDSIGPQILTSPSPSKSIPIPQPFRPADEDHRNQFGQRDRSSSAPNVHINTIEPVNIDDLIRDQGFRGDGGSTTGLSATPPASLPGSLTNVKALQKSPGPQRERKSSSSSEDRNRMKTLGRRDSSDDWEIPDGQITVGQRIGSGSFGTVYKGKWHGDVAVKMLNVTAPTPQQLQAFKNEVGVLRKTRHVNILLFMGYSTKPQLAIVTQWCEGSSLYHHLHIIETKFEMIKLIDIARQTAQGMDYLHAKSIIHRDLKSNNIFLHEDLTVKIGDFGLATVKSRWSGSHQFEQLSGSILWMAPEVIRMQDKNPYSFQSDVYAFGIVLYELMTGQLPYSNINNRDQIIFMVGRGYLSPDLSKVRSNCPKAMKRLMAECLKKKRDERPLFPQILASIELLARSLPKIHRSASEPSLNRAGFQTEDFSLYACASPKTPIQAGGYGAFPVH

## TRHVNILLFM (also: Cy3 label, end not given here) [Braftide-Cy3]
  Kd: 6.69 µM

Source: paper PMC6733264 (ACS chemical biology, 2019)
